In PMC8694081 (Molecular Biology of the Cell, 2021):
Like-named read-outs stand apart in the source and are kept apart here. Values belong to the binder of their own block, whether it stands above or below them.

Assays:
[1] = target: T1, ubiquitin (UniProt P0CG48 1-76); experiment: NMR titration
[2] = target: T1, ubiquitin; experiment: NMR HSQC peak broadening and PRE
[3] = target: T1, ubiquitin; experiment: NMR HSQC peak broadening and PRE; remark: listed apart in the source

B1: HD-PTP V domain (residues 361-711), wild type (domain or fragment)
chain: VPMAAHEASSLYSEEKAKLLREMMAKIEDKNEVLDQFMDSMQLDPETVDNLDAYSHIPPQLMEKCAALSVRPDTVRNLVQSMQVLSGVFTDVEASLKDIRDLLEEDELLEQKFQEAVGQAGAISITSKAELAEVRREWAKYMEVHEKASFTNSELHRAMNLHVGNLRLLSGPLDQVRAALPTPALSPEDKAVLQNLKRILAKVQEMRDQRVSLEQQLRELIQKDDITASLVTTDHSEMKKLFEEQLKKYDQLKVYLEQNLAAQDRVLCALTEANVQYAAVRRVLSDLDQKWNSTLQTLVASYEAYEDLMKKSQEGRDFYADLESKVAALLERTQSTCQAREAARQQLLDRE
Kd [1]: ~31 µM

B2: HD-PTP V domain Site2∆ (E388A, D389A), single spin label at residue 400 (S400) (domain or fragment)
chain: VPMAAHEASSLYSEEKAKLLREMMAKIAAKNEVLDQFMDCMQLDPETVDNLDAYSHIPPQLMEKAAALSVRPDTVRNLVQSMQVLSGVFTDVEASLKDIRDLLEEDELLEQKFQEAVGQAGAISITSKAELAEVRREWAKYMEVHEKASFTNSELHRAMNLHVGNLRLLSGPLDQVRAALPTPALSPEDKAVLQNLKRILAKVQEMRDQRVSLEQQLRELIQKDDITASLVTTDHSEMKKLFEEQLKKYDQLKVYLEQNLAAQDRVLAALTEANVQYAAVRRVLSDLDQKWNSTLQTLVASYEAYEDLMKKSQEGRDFYADLESKVAALLERTQSTAQAREAARQQLLDRE
modifications: MTSL spin label on cysteine 400
binding result [2]: binds

B6: HD-PTP V domain Site1∆ (L371A, E374A, E375A) (domain or fragment)
chain: VPMAAHEASSAYSAAKAKLLREMMAKIEDKNEVLDQFMDSMQLDPETVDNLDAYSHIPPQLMEKCAALSVRPDTVRNLVQSMQVLSGVFTDVEASLKDIRDLLEEDELLEQKFQEAVGQAGAISITSKAELAEVRREWAKYMEVHEKASFTNSELHRAMNLHVGNLRLLSGPLDQVRAALPTPALSPEDKAVLQNLKRILAKVQEMRDQRVSLEQQLRELIQKDDITASLVTTDHSEMKKLFEEQLKKYDQLKVYLEQNLAAQDRVLCALTEANVQYAAVRRVLSDLDQKWNSTLQTLVASYEAYEDLMKKSQEGRDFYADLESKVAALLERTQSTCQAREAARQQLLDRE
Kd [1]: 900 µM

Continued, values first:

binding result [3]: binds
B3: HD-PTP V domain lacking cysteine residues (C425A, C628A, C697A) (domain or fragment)
chain: VPMAAHEASSLYSEEKAKLLREMMAKIEDKNEVLDQFMDSMQLDPETVDNLDAYSHIPPQLMEKAAALSVRPDTVRNLVQSMQVLSGVFTDVEASLKDIRDLLEEDELLEQKFQEAVGQAGAISITSKAELAEVRREWAKYMEVHEKASFTNSELHRAMNLHVGNLRLLSGPLDQVRAALPTPALSPEDKAVLQNLKRILAKVQEMRDQRVSLEQQLRELIQKDDITASLVTTDHSEMKKLFEEQLKKYDQLKVYLEQNLAAQDRVLAALTEANVQYAAVRRVLSDLDQKWNSTLQTLVASYEAYEDLMKKSQEGRDFYADLESKVAALLERTQSTAQAREAARQQLLDRE

binding result [3]: binds
B4: HD-PTP V domain, no-Cys, single cysteine at 368 (A368C), MTSL-labelled (domain or fragment)
chain: VPMAAHECSSLYSEEKAKLLREMMAKIEDKNEVLDQFMDSMQLDPETVDNLDAYSHIPPQLMEKAAALSVRPDTVRNLVQSMQVLSGVFTDVEASLKDIRDLLEEDELLEQKFQEAVGQAGAISITSKAELAEVRREWAKYMEVHEKASFTNSELHRAMNLHVGNLRLLSGPLDQVRAALPTPALSPEDKAVLQNLKRILAKVQEMRDQRVSLEQQLRELIQKDDITASLVTTDHSEMKKLFEEQLKKYDQLKVYLEQNLAAQDRVLAALTEANVQYAAVRRVLSDLDQKWNSTLQTLVASYEAYEDLMKKSQEGRDFYADLESKVAALLERTQSTAQAREAARQQLLDRE
modifications: MTSL spin label on cysteine 368

binding result [2]: binds
B5: HD-PTP V domain Site2∆ (E388A, D389A), single spin label at residue 368 (domain or fragment)
chain: VPMAAHECSSLYSEEKAKLLREMMAKIAAKNEVLDQFMDSMQLDPETVDNLDAYSHIPPQLMEKAAALSVRPDTVRNLVQSMQVLSGVFTDVEASLKDIRDLLEEDELLEQKFQEAVGQAGAISITSKAELAEVRREWAKYMEVHEKASFTNSELHRAMNLHVGNLRLLSGPLDQVRAALPTPALSPEDKAVLQNLKRILAKVQEMRDQRVSLEQQLRELIQKDDITASLVTTDHSEMKKLFEEQLKKYDQLKVYLEQNLAAQDRVLAALTEANVQYAAVRRVLSDLDQKWNSTLQTLVASYEAYEDLMKKSQEGRDFYADLESKVAALLERTQSTAQAREAARQQLLDRE
modifications: MTSL spin label on cysteine 368

binding result [3]: binds
B7: HD-PTP V domain, no-Cys, S400C, MTSL-labelled (domain or fragment)
chain: VPMAAHEASSLYSEEKAKLLREMMAKIEDKNEVLDQFMDCMQLDPETVDNLDAYSHIPPQLMEKAAALSVRPDTVRNLVQSMQVLSGVFTDVEASLKDIRDLLEEDELLEQKFQEAVGQAGAISITSKAELAEVRREWAKYMEVHEKASFTNSELHRAMNLHVGNLRLLSGPLDQVRAALPTPALSPEDKAVLQNLKRILAKVQEMRDQRVSLEQQLRELIQKDDITASLVTTDHSEMKKLFEEQLKKYDQLKVYLEQNLAAQDRVLAALTEANVQYAAVRRVLSDLDQKWNSTLQTLVASYEAYEDLMKKSQEGRDFYADLESKVAALLERTQSTAQAREAARQQLLDRE
modifications: MTSL spin label on cysteine 400
